# Laboratory results published in the RNAGym collection of RNA variant scans (doi:10.1073/pnas.2313332121).
# B1: TPR t1 (parent)
# chain: GACCAAUCUGCCCUCAGAGCUCGAGAACAUCUUCGGAUGCAGAGGAGGCAGGCUUCGGUGGCGCGAUAGCGCCAACGUCCUCAACCUCCAAUGCAUCCCACCACAUGAUGAUGCCUGAAGAGCCUUGGUUUUUUG
# Variants of: B1
# Test: polymerase ribozyme fitness, log enrichment relative to wild type (log ratio); higher = more active; in vitro selection for triplet polymerase activity
# In short: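 One round of in vitro selection, in triplicate, was applied to PCR-built, transcribed mutant libraries of each subunit of a heterodimeric triplet polymerase ribozyme. The steps were annealing with a biotinylated primer, partner subunit and triplets, incubation frozen at −7 °C, gel excision of extended constructs, streptavidin-bead capture and RT-PCR. Fitness is the logarithm, base 2, of genotype enrichment over wild-type enrichment from inverse-variance-weighted replicate averages of Illumina-sequenced inputs and outputs, keeping genotypes with ≥10 input reads and ≥1 read per output.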
row,Variant,polymerase ribozyme fitness (log ratio)
1,C8G U9G C28G G42U G48U U55A C104U G120C,-3.54
2,C8G U9G C70A,-1.19
3,C8G U14C C79U U87A U112A,2.12
4,C8G U14C G39C A100C,-0.867
5,C8G U14G A43C G47U C82G U133A,-3.36
6,C8G U32A A43U G47U G52C C86A U96A,-6.26
7,C8G U54G,0.644
8,C8G U78A G113U C115A G120C,-2.48
9,C8G U78C A105C,-2.32
10,C8G U87C A105C C124G,0.541
11,C8G U116C,-0.0708
12,C8G U125A,0.0447
13,C8G U126C,-0.307
14,C8U A16U G77U C123U,0.933
15,C8U A18U C20A A95U G117A,-3.83
16,C8U A24G G36A G44U C72U,-2.98
17,C8U A26G C49U G57C U112A,-0.963
18,C8U A26U,-2.13
19,C8U A26U C49G C79U G93A,-4.36
20,C8U A26U C62U G93A,-2.86
21,C8U A27C G63C C79A A119G,-4.92

row,Variant,polymerase ribozyme fitness (log ratio)
1,C8U A27U,-1.79
2,C8U A29C U55A C56G C88A U112A U130C,-3.36
3,C8U A29U A37U U116C,-2.24
4,C8U A37C C53U,0.264
5,C8U A37G C56U C73G G110U A119U,-3.74
6,C8U A41C A91C C123U,0.0486
7,C8U A43G G48U C101A,-3.37
8,C8U A46C G63U U106C,-1.81
9,C8U A46G G48C C72G C80U A105C G122A,-5.9
10,C8U A46U C70U G122U,-0.612
11,C8U A50G C72G,-0.53
12,C8U A50G U78A C85A,-0.938
13,C8U A50U A75U U130A,-1.78
14,C8U A84C G117A,-0.216
15,C8U A103U C115G,-5.83
16,C8U C11U A50U,-1.25
17,C8U C11U C70U C73U C102A,-3.01
18,C8U C12G G69C,-1.06
19,C8U C13A A37U G47A C62U G122A,-1.54
20,C8U C13A G25U G39A G47U G63C G117C G120C,-7.2
21,C8U C13A G44U C72A C79U C85A,-3.38

row,Variant,polymerase ribozyme fitness (log ratio)
1,C8U C13A G71U C79U,-1.19
2,C8U C13U A43G,-1.25
3,C8U C13U A68G U129G,-3.57
4,C8U C13U A103C C115A A119G,-2.38
5,C8U C13U C28G C82G C114G,-4.82
6,C8U C13U G35C A46U C115A,-3.54
7,C8U C15A G69A C73A C102U C123A,-5.63
8,C8U C15G G63U U87A,-3.32
9,C8U C20A A26C G60C,-5.68
10,C8U C20A C53U U54A C89G,-4.08
11,C8U C20U U38G C62G G113U,-3.27
12,C8U C20U U78C C82G C123U,0.246
13,C8U C22U A119U,-2.76
14,C8U C22U C53U A100U,-5.15
15,C8U C34G,-5.47
16,C8U C34U,-3.66
17,C8U C40U G52A C79G,-0.696
18,C8U C40U G60A C82A G120U,1.65
19,C8U C49A,0.373
20,C8U C49G C123U,1.73
21,C8U C53G,-0.0198

row,Variant,polymerase ribozyme fitness (log ratio)
1,C8U C56A,0.00842
2,C8U C56A U81G G120C,0.594
3,C8U C56U,0.434
4,C8U C56U C70A,-4.3
5,C8U C56U C82A C97A G117C,-7.35
6,C8U C56U G61A A95U G120A,-6.04
7,C8U C56U U96C,0.0221
8,C8U C64A C115U,-6.79
9,C8U C64U,0.265
10,C8U C64U C101G G110A,-3.18
11,C8U C70G C97U C124U U131A,-1.27
12,C8U C70G U78C G113A A121G,-3.57
13,C8U C70U C97U C124U U131A,0.416
14,C8U C73G,-0.251
15,C8U C76G A90C C101U,-1.52
16,C8U C88A A90U,-0.855
17,C8U C102A,-1.17
18,C8U C104U,0.275
19,C8U C115U G117A,-0.753
20,C8U C123A,0.745
